Series [1] concerns the molecule itself. The series can be described thus: SEC; calibrated Superdex 75 gel-filtration column; 25 mM MES, 0.2 M NaCl, 2 mM EDTA, 2 mM TCEP, 5% glycerol, pH 6, 25 °C. On the technique in general: In gel filtration, larger molecules generally elute earlier.
The target of series [2] is T1, HlyU (VcHlyU), WT (Vibrio cholerae, UniProt P52695 1-108).
T1 sequence: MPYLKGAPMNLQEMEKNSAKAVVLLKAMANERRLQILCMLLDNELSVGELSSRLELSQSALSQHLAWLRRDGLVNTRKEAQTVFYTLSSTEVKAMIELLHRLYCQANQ
Nature of the series: fluorescence anisotropy; reduced HlyU (TCEP), 100 mM NaCl; n=4; Table 1: 25 mM Hepes pH 7, 100 mM NaCl, 1 mM EDTA, 25 °C; Methods: 10 mM Hepes pH 7.0, 0.1 M NaCl, with or without 2 mM TCEP, 10 nM DNA. Conditions: protein: recombinant; chain copies: 2; label: 5'-fluorescein on strand 1; blunt. On the technique in general: Fluorescence polarisation rises when a labelled molecule tumbles more slowly, as on binding a larger partner.

In series [3] the target is T1, HlyU (VcHlyU), WT. Nature of the series: fluorescence anisotropy; HlyU pretreated with 5-fold H2O2; text: no change in affinity; n=3; Table 1: 25 mM Hepes pH 7, 100 mM NaCl, 1 mM EDTA, 25 °C; Methods: 10 mM Hepes pH 7.0, 0.1 M NaCl, with or without 2 mM TCEP, 10 nM DNA. Conditions: protein: recombinant; chain copies: 2; label: 5'-fluorescein on strand 1; blunt.

Two molecules from article PMC10509353, “Increased intracellular persulfide levels attenuate HlyU-mediated hemolysin transcriptional activation in Vibrio cholerae” (The Journal of Biological Chemistry, 2023) can be followed below.

B1: Vibrio cholerae HlyU (natural protein)
chain: T1 sequence
notes: also called VcHlyU; WT HlyU
What is called stoichiometry N is a count of units in the complex or per binding partner. B1: the “stoichiometry N” value in series [1] is 2.

B2: hlyO operator (hlyA promoter) (dsDNA)
DNA 1: TATAAATTAATTCAGACTAAATTAGTTCAAA
DNA 2: TTTGAACTAATTTAGTCTGAATTAATTTATA
Take B2: the Ka is 0.4 ± 0.08 10^9 M^-1 in the series with HlyU (VcHlyU), WT [2] and 0.19 ± 0.03 10^9 M^-1 in the series with HlyU (VcHlyU), WT [3].
